From patent KR20220012792A (dated 2022)
Read-outs that look alike come from different tables or passages of the source.

Columns and labels:
Assay in all cases: cell-based or functional assay
[1] = molecular target: T1, S 단백질 of SARS-CoV-2 hCoV-19/South Korea/KUMC17/2020 (614G) (SARS-CoV-2)
[2] = molecular target: T1, S 단백질 of SARS-CoV-2 hCoV-19/South …; remark: listed apart in the source
[3] = molecular target: T1, S 단백질 of SARS-CoV-2 hCoV-19/South …; remark: listed apart in the source
[4] = molecular target: S 단백질 of SARS-CoV-2 hCoV-19/South Korea/KCDC9481/2020 (614G, G형) (SARS-CoV-2)
[5] = molecular target: T2, S 단백질 of SARS-CoV-2 hCoV-19/Korea/KCDC10847/2020 (GH형) (SARS-CoV-2)
[6] = molecular target: T1, S 단백질 of SARS-CoV-2 hCoV-19/South …; remark: listed apart in the source
[7] = molecular target: T2, S 단백질 of SARS-CoV-2 …; remark: listed apart in the source
[8] = molecular target: S 단백질 of SARS-CoV-2 영국변이바이러스주 hCoV-19/South Korea/KDCA0838/2020 (SARS-CoV-2)

B1: No. 139 항체 (Full IgG) (antibody, V domains shown)
VH: QITLKESGPTLVKPTQTLTLTCSFSGFSLSTSGVGVGWIRQPPGKALEWLALIDWDDNKYHTTSLKTRLTISKDTSKNQVVLTMTNMDPVDTATYYCARIPGFLRYRNRYYYYGMDVWGQGTTVTVSS
VL: ELVLTQPPSVSAAPGQKVTISCSGSSSNIGNNYVSWYQQLPGTAPKLLIYDNNKRPSGIPDRFSGSKSGTSATLGITGLQTGDEADYYCGTWDSSLSAGVFGGGTELTVL
With B1 the “IC50, PRNT” value [1] was 5.73 ng/mL, the “IC50 (ng/ml), PRNT” value [2] was 3.37 ng/mL and the “IC50 (ng/ml), PRNT” value [3] was 5.77 ng/mL. The “IC50 (ng/ml), PRNT” value [4] was 10.6 ng/mL, the “IC50 (ng/ml), PRNT” value [5] was 10.4 ng/mL and the “IC50 (ng/ml), PRNT” value [6] was 4.22 ng/mL. The “IC50 (ng/ml), PRNT” value [7] was 9.31 ng/mL and the “IC50 (ng/ml), PRNT” value [8] was 9.62 ng/mL.
